Results on two substances are retold here after PMC7611526.

pKd: −log10 of the molar value.

As usually defined, the pKd is −log10 of the Kd, conventionally taken in molar units.

Holding throughout (experiment): EMSA
On the technique in general: Mobility shift assays separate free from complexed probe on a gel.

The test system of one data set is OCT4-DBD (Homo sapiens).
Another data set deals with OCT4-WT (Homo sapiens).
In data set [1] the test system is OCT4-del-73 (Homo sapiens).

Consider LIN28B-DNA, for which the pKd is 8.34 with OCT4-DBD (Homo sapiens), 8.84 in the data set with OCT4-WT (Homo sapiens) and 9.07 in data set [1].

For LIN28B-nucleosome, in data set [1], the pKd is 9.02.
